B1: CD71-binding FN3 domain SEQ ID NO: 297 (designed binder)
chain: MSLPAPKNLVVSRVTEDSARLSWTAPDAAFDSFEISYFENTWYGEAIVLTVPGSERSYDLTGLKPGTEYSVRIFGVKGGNFSFPLSAIFTT
B2: CD71-binding FN3 domain SEQ ID NO: 298 (designed binder)
chain: MSLPAPKNLVVSRVTEDSARLSWTAPDAAFDSFEIGYFENLYLGEAIVLTVPGSERSYDLTGLKPGTEYWVQIGGVKGDNWSAPLSAIFTT
B3: CD71-binding FN3 domain SEQ ID NO: 299 (designed binder)
chain: MSLPAPKNLVVSRVTEDSARLSWTAPDAAFDSFEIAYFENLYLGEAIVLTVPGSERSYDLTGLKPGTEYWVQIGGVKGGNWSAPLSAIFTT
B4: CD71-binding FN3 domain SEQ ID NO: 300 (designed binder)
chain: MSLPAPKNLVVSRVTEDSARLSWTAPDAAFDSFEIGYFEATPNGEAIVLTVPGSERSYDLTGLKPGTEYKVFIGGVKGGRWSKPLSAIFTT
B5: CD71-binding FN3 domain SEQ ID NO: 301 (designed binder)
chain: MSLPAPKNLVVSRVTEDSARLSWTTPDAAFDSFEIGYFENLYLGEAIVLTVPGSERSYDLTGLKPGTEYWVQIGGVKGGNWSAPLSAIFTT
B6: CD71-binding FN3 domain SEQ ID NO: 303 (designed binder)
chain: MSLPAPKNLVVSRVTEDSARLSWTAPDAAFDSFWIEYWEGWKSGEAIVLTVPGSERSYDLTGLKPGTEYRVHIWGVKGGIVSWPLSAIFTT
B7: CD71-binding FN3 domain SEQ ID NO: 304 (designed binder)
chain: MSLPAPKNLVVSRVTEDSARLSWTAPDAAFDSFEIGYFENLYLGEAIVLTVPGSERSYDLTGLKPGTEYVVFIGGVKGGVWSVPLSAIFTT
B8: CD71-binding FN3 domain SEQ ID NO: 305 (designed binder)
chain: MSLPAPKNLVVSRVTEDSARLSWTAPDAAFDSFEIAYFEQTYTGEAIVLTVPGSERSYDLTGLKPGTEYWVQIGGVKGGNWSAPLSAIFTT
B9: CD71-binding FN3 domain SEQ ID NO: 306 (designed binder)
chain: MSLPAPKNLVVSRVTEDSARLSWTAPDAAFDSFEIGHFENLYLGEAIVLTVPGSERSYDLTGLKPGIEYWVQIGGVKGGVWSVSLSAIFTT
B10: CD71-binding FN3 domain SEQ ID NO: 307 (designed binder)
chain: MSLPAPKNLVVSRVTEDSARLSWTAPDAAFNSFEIGYFENLYLGEAIVLTVPGSERSYDLTGLKPGTEYWVQIGGVKGGTFSAPLSAIFTT
B11: CD71-binding FN3 domain SEQ ID NO: 308 (designed binder)
chain: MSLPAPKNLVVSRVTEDSARMSWTTPDAAFDSFEIGYFENLYLGEAIVLTVPGSERSYDLTGLKPGTEYWVQIGGVKGGNWSAPLSAIFTT
B12: CD71-binding FN3 domain SEQ ID NO: 309 (designed binder)
chain: MSLPAPENLVVSRVTEDSARLSWTAPDAAFDSFEIGYFENLYLGEAIVLTVPGSERSYDLTGLKPGTEYWVQIGGVKGGNWSAPLSAIFTT
B13: CD71-binding FN3 domain SEQ ID NO: 310 (designed binder)
chain: MSLPAPKNLVVSRVTEDSARLSWTAPDAAFDSFEIDYGEYSQAGEAIGLLVPGSERSYDLTGLKPGTEYAVWIGGVKGGFFSTPLEADFTT
B14: CD71-binding FN3 domain SEQ ID NO: 311 (designed binder)
chain: MSLPAPKNLVVSRVTEDSARLSWTAPDAAFDSFEIGYWENAYKGEAIVLTVPGSERSYDLTGLKPGTEYVVFIGGVKGGSWSNPLSAIFTT
B15: CD71-binding FN3 domain SEQ ID NO: 312 (designed binder)
chain: MSLPAPKNLVVSRVTEDSARLSWTAPDAAFDSFEIGYFENLYLGEAIVLTIPGSERSYDLTGLKPGTEYWVQIGGVKGGNWSAPLSAIFTT
B16: CD71-binding FN3 domain SEQ ID NO: 313 (designed binder)
chain: MSLPAPKNLVVSRVTEDSARLSWTAPDAAFDSFEIAYFENDWAGEAIVLTIPGSERSYDLTGLKPGTEYWVQIGGVKGGNWSAPLSAIFTT
B17: CD71-binding FN3 domain SEQ ID NO: 314 (designed binder)
chain: MGSLPAPKNLVVSRVTEDSARLSWTAPDAAFDSFEIGYFENLYLGEAIVLTVPGSERSYDLTGLKPGTEYWVQIGGVKGGNWSAPLSAIFTT
B18: CD71-binding FN3 domain SEQ ID NO: 315 (designed binder)
chain: MSLPAPKNLVVSRVTEDSARLSWTAPDAAFDSFEIGYFENLYLGEAIVLTVPGSERSYDLTGLKPGTEYWVQIGGVKGGNWSAPLSAISTT
B19: CD71-binding FN3 domain SEQ ID NO: 316 (designed binder)
chain: MSLPAPKNLVISRVTEDSARLSWTAPDAAFDSFEIGYFENLYLGEAIVLTVPGSERSYDLTGLKPGTEYWVQIGGVKGGNWSAPLSAIFTT
B20: CD71-binding FN3 domain SEQ ID NO: 319 (designed binder)
chain: MSLPAPKNLVVSRVTEDSARLSWTAPGAAFDSFEIGYFENLYLGEAIVLTVPGSERSYDLTGLKPGTEYWVQIGGVKGGVWSVPLSAIFTT
B21: CD71-binding FN3 domain SEQ ID NO: 320 (designed binder)
chain: MSLPVPKNLVVSRVTEDSARLSWTAPDAAFDSFEIGYWENAYKGEAIVLTVPGSERSYDLTGLKPGTEYWVQIGGVKGGNWSAPLSAIFTT
B22: CD71-binding FN3 domain SEQ ID NO: 322 (designed binder)
chain: MSLPAPKNLVVSRVTEDSARLSWTAPDAAFDSFEIGYFEITRYGEAIILFVPGSERSYDLTGLKPGTEYWVQIGGVKGGNWSAPLSAIFTT
B23: CD71-binding FN3 domain SEQ ID NO: 323 (designed binder)
chain: MSLPAPKNLVVSRVTEDSARLSWTAPDAAFDSFEIGYFENLYLGEAIVLTVPGSERSYDLTGLKPGTEYWVQIGGVKGGNWSGPLSAIFTT
B24: CD71-binding FN3 domain SEQ ID NO: 324 (designed binder)
chain: MSLPAPKNLVVSRITEDSARLSWTAPDAAFDSFEIGYFENLYLGEAIVLTVPGSERSYDLTGLKPGTEYWVQIGGVKGGNWSAPLSAISTT
B25: CD71-binding FN3 domain SEQ ID NO: 325 (designed binder)
chain: MSLPAPKNLVVSRVTEDSARLSWTAPDAAFDSFEIGYFENLYLGEAIVLTVPGSERSYDLTGLKPGTEYWVQIGGVKGGNWSAPLSEIFTT
B26: CD71-binding FN3 domain SEQ ID NO: 326 (designed binder)
chain: MSLPAPKNLVVSRVTEDSARLSWTAPDAAFDSFEIGYWENAYKGEAIVLTVPGSERSYDLTGLKPGTEYWVQIGGVKGGVWSTPLSAIFTT
B27: CD71-binding FN3 domain SEQ ID NO: 327 (designed binder)
chain: MSLPAPKNLVVSRVTEDSARLSWTAPDAAFDSFEIGYWENAYKGEAIVLTVPGSERSYDLTGLKPGTEYWVQIGGVKGGNWSAPLSAIFTT
B28: CD71-binding FN3 domain SEQ ID NO: 328 (designed binder)
chain: MSLPAPKNLVVSRVTEDSARLSWTAPDAAFDSFEIGYFGNLYLGEAIVLTVPGSERSYDLTGLKPGTEYWVQIGGVKGGNWSAPLSAIFTT
B29: CD71-binding FN3 domain SEQ ID NO: 329 (designed binder)
chain: MSLPAPKNLVVSRVTEDSARLSWTAPDAAFDSFDIGYFEATYYGEAIVLTVPGSERSYDLTGLKPGTEYRVWIGGVKGGYYSNPLSAIFTT
B30: CD71-binding FN3 domain SEQ ID NO: 330 (designed binder)
chain: MSLPAPKNLVVSRVTEDSARLSWTAPDAAFDSFEIGYFENLYLGEAIVLTVPGSERSYDLTGLKPGTEYWVQIGGVKGGNWSAPLSAIVTT
B31: CD71-binding FN3 domain SEQ ID NO: 331 (designed binder)
chain: MSLPAPKNLVVSRVTEDSARLSWTAPDAAFDSFFIGYLEPQPPGEAIHLYVPGSERSYDLTGLKPGTEYNVTIQGVKVGFPSEPLIANFTT
B32: CD71-binding FN3 domain SEQ ID NO: 332 (designed binder)
chain: MSLPAPKNLVVSRVTEDSARLSWTAPDAAFDSFEIGYWEGPGGGEAIILVVPGSERSYDLTGLKPGTEYYVQIGGVKGGDWSTPLWATFTT
B33: CD71-binding FN3 domain SEQ ID NO: 333 (designed binder)
chain: MSLPAPENLVVSRVTEDSARLSWTAPDAAFDSFFIGYLEPQPPGEAIALYVPGSERSYDLTGLKPGTEYNVTIQGVKGGFPSLPLVATFTT
B34: CD71-binding FN3 domain SEQ ID NO: 234 (designed binder)
chain: MSLPAPKNLVVSRVTEDSARLSWTAPDAAFDSFFIGYLEPQPPGEAIALYVPGSERSYDLTGLKPGTEYNVTIQGVKGGFPSEPLVAHFTT
B35: CD71-binding FN3 domain SEQ ID NO: 235 (designed binder)
chain: MSLPAPKNLVVSRVTEDSARLSWTAPDAAFDSFEIVYAEPVRFGEAIVLTVPGSERSYDLTGLKPGTEYWVQIGGVKGGNWSAPLSAIFTT
B36: CD71-binding FN3 domain SEQ ID NO: 236 (designed binder)
chain: MSLPAPKNLVVSRVTEDSARLSWTEPDAAFDSFEIGYFENLYLGEAIVLTVPGSERSYDLTGLKPGTEYWVQIGGVKGGNWSAPLSAIFTT

Key:
[1] = target: apical domain of CD71 (Screen 3: 'cynomolgus apical domain of human CD71') (cynomolgus (as paragraph 454 words it; ambiguous)); test: primary ELISA
[2] = target: apical domain of CD71 (Screen 3: 'cynomolgus apical domain of human CD71') (cynomolgus (as paragraph 454 words it; ambiguous)); test: primary ELISA, RLU ratio to HSA

Binder | RLU [1] [RLU] | Apical domain:HSA [2]
B1 | 5.29e+06 | 1030
B2 | 5.3e+06 | 414
B3 | 5.35e+06 | 614
B4 | 5.57e+06 | 406
B5 | 4.53e+06 | 216
B6 | 5.6e+06 | 636
B7 | 5.5e+06 | 446
B8 | 5.69e+06 | 495
B9 | 4.74e+06 | 320
B10 | 5.36e+06 | 72
B11 | 5.26e+06 | 188
B12 | 5.62e+06 | 452
B13 | 4.83e+06 | 168
B14 | 4.66e+06 | 260
B15 | 5.31e+06 | 556
B16 | 5.17e+06 | 835
B17 | 5.25e+06 | 427
B18 | 4.4e+06 | 73

Binder | RLU [1] [RLU] | Apical domain:HSA [2]
B19 | 4.44e+06 | 442
B20 | 4.57e+06 | 187
B21 | 3.99e+06 | 290
B22 | 4.99e+06 | 252
B23 | 4.22e+06 | 95
B24 | 4.92e+06 | 462
B25 | 4.37e+06 | 205
B26 | 4.07e+06 | 215
B27 | 4.24e+06 | 227
B28 | 3.7e+06 | 42
B29 | 4.64e+06 | 128
B30 | 4.31e+06 | 92
B31 | 6.24e+06 | 701
B32 | 4.94e+06 | 380
B33 | 6.2e+06 | 171
B34 | 7.51e+06 | 798
B35 | 5.63e+06 | 558
B36 | 5.32e+06 | 164

From patent US20260151494A1
